B1: D315A: chimeric modified caspase-9 polypeptide variant (protein, UniProt P55211 1-416, looked up, variant D315A)
chain: MDEADRRLLRRCRLRLVEELQVDQLWDALLSRELFRPHMIEDIQRAGSGSRRDQARQLIIDLETRGSQALPLFISCLEDTGQDMLASFLRTNRQAAKLSKPTLENLTPVVLRPEIRKPEVLRPETPRPVDIGSGGFGDVGALESLRGNADLAYILSMEPCGHCLIINNVNFCRESGLRTRTGSNIDCEKLRRRFSSLHFMVEVKGDLTAKKMVLALLELAQQDHGALDCCVVVILSHGCQASHLQFPGAVYGTDGCPVSVEKIVNIFNGTSCPSLGGKPKLFFIQACGGEQKDHGFEVASTSPEDESPGSNPEPAATPFQEGLRTFDQLDAISSLPTPSDIFVSYSTFPGFVSWRDPKSGSWYVETLDDIFEQWAHSEDLQSLLLRVANAVSVKGIYKQMPGCFNFLRKKLFFKTS
modifications: chimeric, fused to FKBP12v36
notes: chimeric modified caspase-9 polypeptide variant
B2: D315A-D330A: chimeric modified caspase-9 polypeptide double mutant (protein, UniProt P55211 1-416, looked up, variant D315A D330A)
chain: MDEADRRLLRRCRLRLVEELQVDQLWDALLSRELFRPHMIEDIQRAGSGSRRDQARQLIIDLETRGSQALPLFISCLEDTGQDMLASFLRTNRQAAKLSKPTLENLTPVVLRPEIRKPEVLRPETPRPVDIGSGGFGDVGALESLRGNADLAYILSMEPCGHCLIINNVNFCRESGLRTRTGSNIDCEKLRRRFSSLHFMVEVKGDLTAKKMVLALLELAQQDHGALDCCVVVILSHGCQASHLQFPGAVYGTDGCPVSVEKIVNIFNGTSCPSLGGKPKLFFIQACGGEQKDHGFEVASTSPEDESPGSNPEPAATPFQEGLRTFDQLAAISSLPTPSDIFVSYSTFPGFVSWRDPKSGSWYVETLDDIFEQWAHSEDLQSLLLRVANAVSVKGIYKQMPGCFNFLRKKLFFKTS
modifications: chimeric, fused to FKBP12v36
notes: chimeric modified caspase-9 polypeptide double mutant
B3: D327G: chimeric modified caspase-9 polypeptide variant (protein)
chain: VDGFGDVGALESLRGNADLAYILSMEPCGHCLIINNVNFCRESGLRTRTGSNIDCEKLRRRFSSLHFMVEVKGDLTAKKMVLALLELARQDHGALDCCVVVILSHGCQASHLQFPGAVYGTDGCPVSVEKIVNIFNGTSCPSLGGKPKLFFIQACGGEQKDHGFEVASTSPEDESPGSNPEPDATPFQEGLRTFGQLDAISSLPTPSDIFVSYSTFPGFVSWRDPKSGSWYVETLDDIFEQWAHSEDLQSLLLRVANAVSVKGIYKQMPGCFNFLRKKLFFKTSASRA
B4: D327K: chimeric modified caspase-9 polypeptide variant (protein)
chain: VDGFGDVGALESLRGNADLAYILSMEPCGHCLIINNVNFCRESGLRTRTGSNIDCEKLRRRFSSLHFMVEVKGDLTAKKMVLALLELARQDHGALDCCVVVILSHGCQASHLQFPGAVYGTDGCPVSVEKIVNIFNGTSCPSLGGKPKLFFIQACGGEQKDHGFEVASTSPEDESPGSNPEPDATPFQEGLRTFKQLDAISSLPTPSDIFVSYSTFPGFVSWRDPKSGSWYVETLDDIFEQWAHSEDLQSLLLRVANAVSVKGIYKQMPGCFNFLRKKLFFKTSASRA
B5: D327R: chimeric modified caspase-9 polypeptide variant (protein)
chain: VDGFGDVGALESLRGNADLAYILSMEPCGHCLIINNVNFCRESGLRTRTGSNIDCEKLRRRFSSLHFMVEVKGDLTAKKMVLALLELARQDHGALDCCVVVILSHGCQASHLQFPGAVYGTDGCPVSVEKIVNIFNGTSCPSLGGKPKLFFIQACGGEQKDHGFEVASTSPEDESPGSNPEPDATPFQEGLRTFRQLDAISSLPTPSDIFVSYSTFPGFVSWRDPKSGSWYVETLDDIFEQWAHSEDLQSLLLRVANAVSVKGIYKQMPGCFNFLRKKLFFKTSASRA
B6: F326K: chimeric modified caspase-9 polypeptide variant (protein)
chain: VDGFGDVGALESLRGNADLAYILSMEPCGHCLIINNVNFCRESGLRTRTGSNIDCEKLRRRFSSLHFMVEVKGDLTAKKMVLALLELARQDHGALDCCVVVILSHGCQASHLQFPGAVYGTDGCPVSVEKIVNIFNGTSCPSLGGKPKLFFIQACGGEQKDHGFEVASTSPEDESPGSNPEPDATPFQEGLRTKDQLDAISSLPTPSDIFVSYSTFPGFVSWRDPKSGSWYVETLDDIFEQWAHSEDLQSLLLRVANAVSVKGIYKQMPGCFNFLRKKLFFKTSASRA
B7: Q328K: chimeric modified caspase-9 polypeptide variant (protein)
chain: VDGFGDVGALESLRGNADLAYILSMEPCGHCLIINNVNFCRESGLRTRTGSNIDCEKLRRRFSSLHFMVEVKGDLTAKKMVLALLELARQDHGALDCCVVVILSHGCQASHLQFPGAVYGTDGCPVSVEKIVNIFNGTSCPSLGGKPKLFFIQACGGEQKDHGFEVASTSPEDESPGSNPEPDATPFQEGLRTFDKLDAISSLPTPSDIFVSYSTFPGFVSWRDPKSGSWYVETLDDIFEQWAHSEDLQSLLLRVANAVSVKGIYKQMPGCFNFLRKKLFFKTSASRA
B8: Q328R: chimeric modified caspase-9 polypeptide variant (protein)
chain: VDGFGDVGALESLRGNADLAYILSMEPCGHCLIINNVNFCRESGLRTRTGSNIDCEKLRRRFSSLHFMVEVKGDLTAKKMVLALLELARQDHGALDCCVVVILSHGCQASHLQFPGAVYGTDGCPVSVEKIVNIFNGTSCPSLGGKPKLFFIQACGGEQKDHGFEVASTSPEDESPGSNPEPDATPFQEGLRTFDRLDAISSLPTPSDIFVSYSTFPGFVSWRDPKSGSWYVETLDDIFEQWAHSEDLQSLLLRVANAVSVKGIYKQMPGCFNFLRKKLFFKTSASRA
B9: L329K: chimeric modified caspase-9 polypeptide variant (protein)
chain: VDGFGDVGALESLRGNADLAYILSMEPCGHCLIINNVNFCRESGLRTRTGSNIDCEKLRRRFSSLHFMVEVKGDLTAKKMVLALLELARQDHGALDCCVVVILSHGCQASHLQFPGAVYGTDGCPVSVEKIVNIFNGTSCPSLGGKPKLFFIQACGGEQKDHGFEVASTSPEDESPGSNPEPDATPFQEGLRTFDQKDAISSLPTPSDIFVSYSTFPGFVSWRDPKSGSWYVETLDDIFEQWAHSEDLQSLLLRVANAVSVKGIYKQMPGCFNFLRKKLFFKTSASRA
B10: L329G: chimeric modified caspase-9 polypeptide variant (protein)
chain: VDGFGDVGALESLRGNADLAYILSMEPCGHCLIINNVNFCRESGLRTRTGSNIDCEKLRRRFSSLHFMVEVKGDLTAKKMVLALLELARQDHGALDCCVVVILSHGCQASHLQFPGAVYGTDGCPVSVEKIVNIFNGTSCPSLGGKPKLFFIQACGGEQKDHGFEVASTSPEDESPGSNPEPDATPFQEGLRTFDQGDAISSLPTPSDIFVSYSTFPGFVSWRDPKSGSWYVETLDDIFEQWAHSEDLQSLLLRVANAVSVKGIYKQMPGCFNFLRKKLFFKTSASRA
B11: A331K: chimeric modified caspase-9 polypeptide variant (protein)
chain: VDGFGDVGALESLRGNADLAYILSMEPCGHCLIINNVNFCRESGLRTRTGSNIDCEKLRRRFSSLHFMVEVKGDLTAKKMVLALLELARQDHGALDCCVVVILSHGCQASHLQFPGAVYGTDGCPVSVEKIVNIFNGTSCPSLGGKPKLFFIQACGGEQKDHGFEVASTSPEDESPGSNPEPDATPFQEGLRTFDQLDKISSLPTPSDIFVSYSTFPGFVSWRDPKSGSWYVETLDDIFEQWAHSEDLQSLLLRVANAVSVKGIYKQMPGCFNFLRKKLFFKTSASRA
B12: ^316ATPF^319AVPI: caspase-9 with ATPF tetrapeptide replaced by SMAC/DIABLO AVPI (protein, UniProt P55211 1-416, looked up, variant T317V F319I)
chain: MDEADRRLLRRCRLRLVEELQVDQLWDALLSRELFRPHMIEDIQRAGSGSRRDQARQLIIDLETRGSQALPLFISCLEDTGQDMLASFLRTNRQAAKLSKPTLENLTPVVLRPEIRKPEVLRPETPRPVDIGSGGFGDVGALESLRGNADLAYILSMEPCGHCLIINNVNFCRESGLRTRTGSNIDCEKLRRRFSSLHFMVEVKGDLTAKKMVLALLELAQQDHGALDCCVVVILSHGCQASHLQFPGAVYGTDGCPVSVEKIVNIFNGTSCPSLGGKPKLFFIQACGGEQKDHGFEVASTSPEDESPGSNPEPDAVPIQEGLRTFDQLDAISSLPTPSDIFVSYSTFPGFVSWRDPKSGSWYVETLDDIFEQWAHSEDLQSLLLRVANAVSVKGIYKQMPGCFNFLRKKLFFKTS

System: HEK293T/16 cells
Test: SEAP reporter-based surrogate killing assay (basal activity and AP1903 IC50)
Type: cell-based, human
Details: AP1903-independent SEAP activity, vs wild type
Experimental: FIG. 45 provides a schematic of an analysis of SEAP assays. […] of the mixture was seeded onto each well of a 96-well plate. […] For the assay, 4-methylumbelliferyl phosphate substrate was hydrolyzed by SEAP to 4-methylumbelliferon, a metabolite that can be excited with 364 nm and detected with an emission filter of 448 nm. Since SEAP is used as a marker for cell viability, reduced SEAP reading corresponds with increased icaspase-9 activities.
Early passage HEK293T/16 cells (ATCC, Manassas, Va.) were maintained in IMDM, GlutaMAX™ (Life Technologies, Carlsbad, Calif.) supplemented with 10% FBS, 100 U/mL penicillin, and 100 […] until transfection in a humidified, 37° C., 5% CO2/95% air atmosphere. Cells in logarithmic-phase growth were transiently transfected with 800 ng to 2 μg of expression plasmid encoding iCasp9 mutants and 500 ng of an expression plasmid encoding SRα promoter driven SEAP per million cells in 15-mL conical tubes. […] GeneJammer® Transfection Reagent at a ratio of 3 μl per ug of plasmid DNA was used to transiently transfect HEK293T/16 cells in the absence of antibiotics. 100 μl or 2 mL of the transfection mixture was added to each well in 96-well or 6-well plate, respectively.
Briefly, after 65° C. heat denaturation for 45 minutes to reduce background caused by endogenous (and serum-derived) alkaline phosphatases that are sensitive to heat, 5 μl of supernatants was added to 95 μl of PBS and added to 100 μl of substrate buffer, containing 1 μl of 100 mM 4-methylumbelliferyl phosphate (4-MUP; Sigma, St. Louis, Mo.) re-suspended in 2 M diethanolamine. Hydrolysis of 4-MUP by SEAP produces a fluorescent […] with excitation/emission (355/460 nm), which can be easily measured. Assays were performed in black opaque 96-well plates to minimize fluorescence leakage between wells (FIG. 45).

Molecule | basal activity / basal signaling (in words)
B1 | reduced basal activity
B2 | inactive
B3 | did not lower basal activity
B4 | did not lower basal activity
B5 | did not lower basal activity
B6 | did not lower basal activity
B7 | did not lower basal activity
B8 | did not lower basal activity
B9 | did not lower basal activity
B10 | did not lower basal activity
B11 | did not lower basal activity
B12 | no effect

From patent US20150328292A1, “CASPASE POLYPEPTIDES HAVING MODIFIED ACTIVITY AND USES THEREOF” (BELLICUM PHARMACEUTICALS, INC., priority 2014, published 2015)
